Six molecules from patent US20260042834A1 (HBM ALPHA THERAPEUTICS, published 2026) can be followed below.

The target in one test is T1, human UCN2 peptide (human, UniProt Q96RP3 72-109, limits assumed, not fully specified; biotin at N- or C-terminus in the ELISA).
T1 construct: also called hUCN2; hUCN2 (NT Biotin)
T1 peptide (looked up): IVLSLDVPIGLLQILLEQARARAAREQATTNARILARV
Description: ELISA, biotinylated hUCN2 on streptavidin plates. As for the experimental part:
(§1) Streptavidin (Thermo, Cat: 21125) was diluted in PBS with a concentration of 2 μg/mL. 100 μL of diluted streptavidin was added per well to ELISA microplates, and the plates were incubated overnight at 4° C. Plates were blocked with ELISA blocking solution (containing 2% w/v BSA, 0.05% (v/v) Tween-20, pH 7.4 PBS buffer) at 37° C. for 1 hour, and then incubated with either 1 μg/mL hUCN1 (NT Biotin), hUCN1 (CT Biotin), hUCN2 (NT Biotin), hUCN2 (CT Biotin), hUCN3 (NT Biotin), or hUCN3 (CT Biotin) for 1 hour at 37° C. […] 100 μl of TMB Substrate (Biopanda, Cat: TMB-S-003) was added, and the plates were incubated at room temperature for 15 minutes. 100 μL of ELISA stopping solution (Solarbio, Cat #: C1058) was then added to terminate the reaction, and the OD450 nm was determined by an ELISA plate reader (Molecular Devices, Spectra max 384 plus).
In general terms: ELISA stands for enzyme-linked immunosorbent assay.

The target in a further test is T2, human UCN3 peptide (human, UniProt Q969E3 120-157, not fully specified; biotin at N- or C-terminus in the ELISA).
T2 construct: also called hUCN3; hUCN3 (NT Biotin)
T2 peptide (looked up): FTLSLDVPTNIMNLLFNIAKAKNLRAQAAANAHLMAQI
In words: ELISA, biotinylated hUCN3 on streptavidin plates. As for the experimental part:
as §1

The target of the next test is T3, human UCN1 peptide (human, UniProt P55089 83-122).
T3 peptide (looked up): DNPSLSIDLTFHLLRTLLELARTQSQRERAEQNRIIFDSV
In words: cell-based or functional assay.

Test [1] concerns the target T4, corticotropin-releasing hormone (CRH) peptide (human and mouse, not fully specified).
T4 peptide: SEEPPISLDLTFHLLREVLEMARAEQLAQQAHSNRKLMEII
In words: cell-based or functional assay.

The next test addresses T5, CRH (CT Biotin) (human and mouse, C-terminal K-Biotin).
T5 construct: also called Peptide 4 (CRH-Biotin)
T5 peptide: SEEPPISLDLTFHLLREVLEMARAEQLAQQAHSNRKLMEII
In words: ELISA, biotin peptide on streptavidin plate. As for the experimental part:
(§2) Streptavidin (Thermo, Cat: 21125) was diluted in PBS to a concentration of 2 μg/ml. 100 μl of diluted streptavidin was added per well to ELISA microplates, and the plates were incubated overnight at 4° C. […] 100 μL of 3,3′,5,5′-tetramethylbenzidine (TMB) substrate (Biopanda, Cat: TMB-S-003) was added, and the plates were incubated at room temperature for 15 minutes. 100 μL of ELISA stopping solution (Solarbio, Cat #: C1058) was added to terminate the reaction, and the optical density at 450 nm (OD450 nm) was determined by an ELISA plate reader (Molecular Devices, Spectra max 384 plus).

Another test addresses T6, CRH (NT Biotin) (human and mouse, not fully specified; biotin at the N-terminus).
T6 peptide: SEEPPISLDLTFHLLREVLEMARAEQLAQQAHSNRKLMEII
In words: ELISA, biotin peptide on streptavidin plate. On the procedure: as §2

A further test concerns the target T7, biotinylated CRH (human and mouse, not fully specified; biotinylated, position not stated).
T7 construct: also called Biotin-CRH; biotin-labeled CRH
T7 peptide: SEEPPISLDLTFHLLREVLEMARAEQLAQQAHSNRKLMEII
In words: Octet BLI, biotinylated CRH on SA sensor. As for the experimental part:
Octet® Red 96e was used for affinity measurement. Octet® running buffer was prepared by diluting kinetics buffer 10× (Fortebio, Cat #18-1105) in PBS according to the manufacturer's instructions. Two columns of SA sensors (Fortebio, Cat #18-5019) were hydrated in running buffer for 10 mins, one for ligand capturing and the other for reference. Antibodies were 2-fold diluted and added into a 96-well plate. […] After a 60-second baseline step, sensors were dipped into analyte and buffer wells successively, with the association and dissociation time of 180 seconds and 800 seconds, respectively. […] Signals of reference wells and reference sensors were subtracted by selecting “Double reference” before data fitting.
Background: BLI is a label-free optical method that tracks binding on a fibre tip over time.

Values joined by “and” are separate entries in the source; they are usually repeats but may differ in a detail not shown here. Equal entries are not always repeated. A value given as a limit tells only on which side of the number the result lay.

B1: PR004290 (antibody, human IgG1, kappa, V domains shown)
VH: EVQLVESGGVLVQPGGSLRLSCAASGFTFSSYWMTWVRQAPGKGLEWVANIKQDGSEKYYVDSVKGRFTISRDNAKNSLFLQMNSLRAEDTAVYYCARTLIFDYWGQGTLVTVSS
VL: DIVMTQSPLSLPVTPGEPASISCRSSQSLLHSTGYNSLEWYLQKPGQSPQLLIYLGSNRASGVPDRFSGSGSGTDFTLKISRVEAEDVGIYYCMQTLQTPITFGQGTRLEIKR
notes: Series 1; human IgG1 wildtype Fc; also called hybridoma clone 28b3
Consider B1, for which the binding result with human UCN2 peptide and in the test with human UCN3 peptide was “no binding (tested: 100 nM)” in each case.

B2: PR302341 (antibody, human IgG1, kappa, V domains shown)
VH: EVQLQQSGPELVKPGASVKMSCKASGYTFTDYFMKWVKQSHGESLEWIGVINPNNGDIFYNQKFKGKATLTVDKSSSTAFMQLNSLTSEDSAVYSCARGTDRALFAYWGQGTLVAVSA
VL: DVLMTQTPLSLPVSLGDQASISCRSGQSIVHSDGNTYLEWYLQRPGQSPRLLIYKVSNRFSGVPDRFSGSGSGTDFTLKISRVGAEDLGIYYCFQGSHIPWTFGGGTKLEVKR
notes: Series 10; mouse variable domains with human IgG1 wildtype Fc
What is called EC50 is the concentration that produces a half-maximal response. Read a high EC50 as lower potency in that assay. Broadly, the Kd is the free concentration of one partner at which half of the binding sites on the other are occupied at equilibrium, for simple one-to-one binding. One may read the koff as a measure of how fast the partners let go of each other. The term kon denotes the second-order rate constant of association. Higher therefore signals faster complex formation. In the case of B2, in the test with human UCN1 peptide, the “CHO-CRE-hCRHR1 1 nM hUCH1 IC50” value worked out at 19 nM and the “hUCN1 IC50/ CRH IC50” value amounted to 40 fold. Also, in test [1], the “CHO-CRE-hCRHR1 0.5 nM CRH IC50” value is 0.503 nM and 0.437 nM. The molecule also had an EC50 in the test with CRH (CT Biotin) of 0.017 nM. In the test with CRH (NT Biotin), this molecule showed an EC50 of 0.023 nM. Also, in the test with biotinylated CRH, the Kd is < 0.001 nM, the koff amounted to 2.18e-07 s⁻¹ and the kon was 1.01e+06 M⁻¹ s⁻¹.

B3: PR302341-34 (antibody, human IgG1, kappa, V domains shown)
VH: QVQLVQSGAEVKKPGASVKVSCKASGYTFTDYFMKWVRQAPGQGLEWMGVINPNQGDIFYNQKFKGRVTMTVDKSISTAYMELSRLRSDDTAVYYCARGTDRALFAYWGQGTLVTVSS
VL: DVVMTQSPLSLPVTLGQPASISCRSGQSIVHSDANTYLEWYQQRPGQSPRLLIYKVSNRFSGVPDRFSGSGSGTDFTLKISRVEAEDLGVYYCFQGSHIPWTFGGGTKVEIKR
notes: Humanized, PTM-removed variant of PR302341
Consider B3, for which the binding result with human UCN2 peptide and with human UCN3 peptide was “no binding (tested: 100 nM)” each time.

B4: PR302341-48 (antibody, human IgG1, kappa, V domains shown)
VH: QVQLVQSGAEVKKPGASVKVSCKASGYTFTDYFMKWVRQAPGQGLEWMGVINPNQGDIFYNQKFKGRVTMTVDKSTSTAYMELSSLRSEDTAVYYCARGTDRALFAYWGQGTLVTVSS
VL: DVVMTQTPLSSPVTLGQPASISCRSGQSIVHSDANTYLEWYQQRPGQPPRLLIYKVSNRFSGVPDRFSGSGAGTDFTLKISRVEAEDLGVYYCFQGSHIPWTFGGGTKVEIKR
notes: as for B3
For B4, the binding result with human UCN2 peptide and with human UCN3 peptide was “no binding (tested: 100 nM)” each time.

B5: PR302341-28 (antibody, human IgG1, kappa, V domains shown)
VH: QVQLVQSGAEVKKPGASVKVSCKASGYTFTDYFMKWVRQAPGQGLEWMGVINPNQGDIFYNQKFKGRVTMTVDKSISTAYMELSRLRSDDTAVYYCARGTDRALFAYWGQGTLVTVSS
VL: DVVMTQSPLSLPVTLGQPASISCRSGQSIVHSDGNTYLEWYQQRPGQSPRLLIYKVSNRFSGVPDRFSGSGSGTDFTLKISRVEAEDLGVYYCFQGSHIPWTFGGGTKVEIKR
notes: as for B3
As to B5, the binding result with human UCN2 peptide and in the test with human UCN3 peptide was “no binding (tested: 100 nM)” each time.

B6: PR302341-60 (antibody, human IgG1, kappa, V domains shown)
VH: QVQLVQSGAEVKKPGASVKVSCKASGYTFTDYFMKWVRQAPGQRLEWMGVINPNQGDIFYNQKFKGRVTITRDTSASTAYMELSSLRSEDTAVYYCARGTDRALFAYWGQGTLVTVSS
VL: DVVMTQSPLSLPVTLGQPASISCRSGQSIVHSDANTYLEWYQQRPGQSPRLLIYKVSNRFSGVPDRFSGSGSGTDFTLKISRVEAEDLGVYYCFQGSHIPWTFGGGTKVEIKR
notes: as for B3
As to B6, the binding result with human UCN2 peptide and with human UCN3 peptide was “no binding (tested: 100 nM)” in each case.
